Consider three substances from US11406618B2, “Polymer-des-ethyl sunitinib conjugates” (Nektar Therapeutics, priority 2010, dated 2022).

The nature of this data set: Buffer hydrolysis in phosphate buffer to monitor the release of des-ethyl sunitinib. The class given is physicochemical. The conditions noted are these: 100 mM phosphate, 37° C. How it is done: In a 10 mL round bottom flask was added (Z)—(N-(2-aminoethyl)-9-(hydroxymethyl)-9H-fluorene-2-carboxamide hydrochloride) ethyl(2-(5-((5-fluoro-2-oxoindolin-3-ylidene)methyl)-2,4-dimethyl-1H-pyrrole-3-carboxamido)ethyl)carbamate dihydrochloride (Compound 2a) (4.83 mg, 6.42 μmol). The solids were dissolved in anhydrous tetrahydrofuran (0.4 mL) and 1,4 dioxane (0.2 mL). mPEG-SPA 20K (100.4 mg, 5.02 μmol) was added. Anhydrous acetonitrile (0.2 mL) was added to dissolve the PEG. After the PEG dissolved, triethylamine (5.2 μL, 0.037 mmol) was added. At 1 hour, the reaction solvent was evaporated at reduced pressure to a dry solid. The product was redissolved in anhydrous acetonitrile (0.5 mL) and precipitated by slow addition of anhydrous IPA (8 mL total). The product was washed with anhydrous IPA (50 mL) and diethyl ether. Residual solvent was evaporated at reduced pressure. Yield was 75 mg yellow powder (75% yield). HPLC analysis was on C18 applying an acetonitrile gradient with 0.1% TFA; retention times were desethyl sunitinib (compound 1) 2.5 minutes and product at 10.7 minutes. Buffer hydrolysis was performed to monitor the release of des-ethyl sunitinib (100 mM phosphate, 37° C.): 36 days at pH 7.5, 3.6 days at pH 8.5.
In a 10 mL round bottom flask was added Compound 2b (9.6 mg, 0.013 mmol). The solids were suspended in anhydrous acetonitrile (0.37 mL) and 1,4 dioxane (0.37 mL). mPEG-SPA 20K (181.3 mg, 9.07 μmol) was added. After the PEG dissolved, triethylamine (9.24 μL, 0.066 mmol) was added. At one hour, the product was precipitated by slow addition of anhydrous IPA (10 mL). The solid was washed with anhydrous IPA (25-30 mL) and then washed with diethyl ether. Residual solvent was evaporated at reduced pressure. Yield was ˜120 mg yellow powder. The product was transferred to a 50 mL round bottom flask. More Compound 2b (6.9 mg, 9.18 μmol) was added. Anhydrous acetonitrile (0.25 mL) and anhydrous 1,4 dioxane (0.25 mL) and anhydrous pyridine (2.2 μL, 0.027 mmol) were added. The reagents never fully dissolved, therefore triethylamine (6 μL, 0.043 mmol) was added. The solution was a clear orange color. After 45 minutes, the product was precipitated by slow addition of anhydrous IPA (˜10 mL). The solid was washed with anhydrous IPA (˜25-30 mL) and then washed with diethyl ether. Residual solvent was evaporated at reduced pressure. Yield was ˜68 mg (57%) yellow powder. HPLC analysis was on C18 applying an acetonitrile gradient with 0.1% TFA; retention times were desethyl sunitinib (compound 1) 2.5 min and product at 10.7 min. Buffer hydrolysis was performed to monitor the release of des-ethyl sunitinib (100 mM phosphate, 37° C.): 22 days at pH 7.5, 1.4 days at pH 8.5.
Experiments were carried out to measure drug release from the polymer conjugates. A typical plot of the data showing the decay of the polymer conjugate (FIG. 1) and the build-up of drug with time (FIG. 2) are included.
In a 10 mL round bottom flask was Compound 2c (7.4 mg, 7.69 μmol) was suspended in anhydrous dioxane (0.5 mL) and anhydrous acetonitrile (0.5 mL). mPEG-SPA 20K (100.0 mg, 5.0 μmol) was added. After the PEG dissolved, triethylamine (7.2 μL, 0.052 mmol) was added. At thirty minutes, anhydrous acetonitrile (0.5 mL) and anhydrous methanol (0.3 mL) were added. At two hours total reaction time, the product was precipitated by slow addition of anhydrous IPA containing 0.25% phosphoric acid. The product was washed with anhydrous IPA and then washed with diethyl ether. Residual solvent was evaporated at reduced pressure. Yield: 58 mg (58%) yellow powder. HPLC analysis employed a C18 column using an acetonitrile gradient with 0.1% TFA; retention times were des-ethyl sunitinib 2.5 min and product 10.7 minutes with 41% purity at 320 nm. Buffer hydrolysis was done to monitor the release of desethyl sunitinib (100 mM phosphate, 37° C.): 11 d at pH 7.5, 1.7 d at pH 8.5.

With “(Z)-(9-(hydroxymethyl)-N2-(2-(2-(2-methoxyethoxy)ethoxy)ethyl)-N7-(2-β-(2-(mPEG 20,000))propanamido)ethyl)-9H-fluorene-2,7-dicarboxamide) ethyl(2-(5-((5-fluoro-2-oxoindolin-3-ylidene)methyl)-2,4-dimethyl-1H-pyrrole-3-carboxamido)ethyl)carbamate [Compound 3c]”, for the setting “pH 7.5”, the “Buffer hydrolysis, release of desethyl sunitinib at pH 7.5” value was determined as 11 d. The “Buffer hydrolysis, release of desethyl sunitinib at pH 8.5” value (pH 8.5) stood at 1.7 d.
“(Z)-(9-(hydroxymethyl)-N-(2-β-(mPEG 20,000)propanamido)ethyl)-9H-fluorene-2-carboxamide) ethyl(2-(5-((5-fluoro-2-oxoindolin-3-ylidene)methyl)-2,4-dimethyl-1H-pyrrole-3-carboxamido)ethyl)carbamate [Compound 3a]”: for the setting “pH 7.5”, the “Buffer hydrolysis, release of des-ethyl sunitinib at pH 7.5” value worked out at 36 days. The “Buffer hydrolysis, release of des-ethyl sunitinib at pH 8.5” value (pH 8.5) was found to be 3.6 days.
For “(Z)-(9-(hydroxymethyl)-N-(2-β-(mPEG 20,000)propanamido)ethyl)-9H-fluorene-4-carboxamide) ethyl(2-(5-((5-fluoro-2-oxoindolin-3-ylidene)methyl)-2,4-dimethyl-1H-pyrrole-3-carboxamido)ethyl)carbamate [Compound 3b]”, in that order: 22 days and 1.4 days.
